Measured values as given in paper PMC7865148 (Proceedings of the National Academy of Sciences of the …, 2021).

T1: NST1-GST fusion protein (Arabidopsis thaliana, UniProt Q84WP6 1-365)
T1 sequence (looked up): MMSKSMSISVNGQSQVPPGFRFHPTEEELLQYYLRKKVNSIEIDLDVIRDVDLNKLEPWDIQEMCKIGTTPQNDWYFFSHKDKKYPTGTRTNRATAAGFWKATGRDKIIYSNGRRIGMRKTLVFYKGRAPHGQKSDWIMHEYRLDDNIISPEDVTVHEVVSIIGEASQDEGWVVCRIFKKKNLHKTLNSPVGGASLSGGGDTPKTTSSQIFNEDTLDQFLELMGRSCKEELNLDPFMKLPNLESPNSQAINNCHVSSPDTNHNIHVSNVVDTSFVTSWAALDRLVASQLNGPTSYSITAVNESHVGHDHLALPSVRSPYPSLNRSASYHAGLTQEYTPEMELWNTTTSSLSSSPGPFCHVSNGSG

B1: SnRK2.2-6xHis fusion protein (enzyme, Arabidopsis thaliana, UniProt Q39192 1-362, looked up)
chain: MDPATNSPIMPIDLPIMHDSDRYDFVKDIGSGNFGVARLMTDRVTKELVAVKYIERGEKIDENVQREIINHRSLRHPNIVRFKEVILTPSHLAIVMEYAAGGELYERICNAGRFSEDEARFFFQQLISGVSYCHAMQICHRDLKLENTLLDGSPAPRLKICDFGYSKSSVLHSQPKSTVGTPAYIAPEILLRQEYDGKLADVWSCGVTLYVMLVGAYPFEDPQEPRDYRKTIQRILSVTYSIPEDLHLSPECRHLISRIFVADPATRITIPEITSDKWFLKNLPGDLMDENRMGSQFQEPEQPMQSLDTIMQIISEATIPTVRNRCLDDFMADNLDLDDDMDDFDSESEIDVDSSGEIVYAL
B2: SnRK2.3-6xHis fusion protein (enzyme, Arabidopsis thaliana, UniProt Q39193 1-361, looked up)
chain: MDRAPVTTGPLDMPIMHDSDRYDFVKDIGSGNFGVARLMRDKLTKELVAVKYIERGDKIDENVQREIINHRSLRHPNIVRFKEVILTPTHLAIIMEYASGGELYERICNAGRFSEDEARFFFQQLLSGVSYCHSMQICHRDLKLENTLLDGSPAPRLKICDFGYSKSSVLHSQPKSTVGTPAYIAPEVLLRQEYDGKIADVWSCGVTLYVMLVGAYPFEDPEEPRDYRKTIQRILSVKYSIPDDIRISPECCHLISRIFVADPATRISIPEIKTHSWFLKNLPADLMNESNTGSQFQEPEQPMQSLDTIMQIISEATIPAVRNRCLDDFMTDNLDLDDDMDDFDSESEIDIDSSGEIVYAL
B3: SnRK2.6-6xHis fusion protein (enzyme, Arabidopsis thaliana, UniProt Q940H6 1-362, looked up)
chain: MDRPAVSGPMDLPIMHDSDRYELVKDIGSGNFGVARLMRDKQSNELVAVKYIERGEKIDENVKREIINHRSLRHPNIVRFKEVILTPTHLAIVMEYASGGELFERICNAGRFSEDEARFFFQQLISGVSYCHAMQVCHRDLKLENTLLDGSPAPRLKICDFGYSKSSVLHSQPKSTVGTPAYIAPEVLLKKEYDGKVADVWSCGVTLYVMLVGAYPFEDPEEPKNFRKTIHRILNVQYAIPDYVHISPECRHLISRIFVADPAKRISIPEIRNHEWFLKNLPADLMNDNTMTTQFDESDQPGQSIEEIMQIIAEATVPPAGTQNLNHYLTGSLDIDDDMEEDLESDLDDLDIDSSGEIVYAM

molecular target: T1, NST1-GST fusion protein; assay: pull-down

Binding result, binds:
B1
B2
B3
